Side-chain parts run from the residue outwards. [ ]: non-standard residue; d: D form.
Experiments:
Experiment in all cases: cell-based or functional assay
[1] = molecular target: human GLP-2 receptor (human) (UniProt O95838)
[2] = molecular target: recombinant human type 2 Formyl peptide receptor (FPR2) (human) (UniProt P25090)
[3] = molecular target: human GLP-1 receptor (human) (UniProt P43220)
Chain of human GLP-1 receptor (human) (P43220 24-463): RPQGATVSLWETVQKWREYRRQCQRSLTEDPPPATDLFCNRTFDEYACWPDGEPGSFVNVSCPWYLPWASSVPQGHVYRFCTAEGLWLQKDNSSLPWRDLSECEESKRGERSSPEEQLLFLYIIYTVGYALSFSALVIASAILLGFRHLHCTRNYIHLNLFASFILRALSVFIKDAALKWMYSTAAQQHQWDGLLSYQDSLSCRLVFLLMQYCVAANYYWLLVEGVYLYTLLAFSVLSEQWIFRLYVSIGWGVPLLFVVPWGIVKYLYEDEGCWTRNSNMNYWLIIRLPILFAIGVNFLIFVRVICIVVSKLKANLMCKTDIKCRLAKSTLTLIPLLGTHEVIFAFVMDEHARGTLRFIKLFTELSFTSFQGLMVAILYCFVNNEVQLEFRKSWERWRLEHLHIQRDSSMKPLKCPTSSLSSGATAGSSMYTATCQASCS

Chain of human GLP-2 receptor (human) (O95838 whole entry): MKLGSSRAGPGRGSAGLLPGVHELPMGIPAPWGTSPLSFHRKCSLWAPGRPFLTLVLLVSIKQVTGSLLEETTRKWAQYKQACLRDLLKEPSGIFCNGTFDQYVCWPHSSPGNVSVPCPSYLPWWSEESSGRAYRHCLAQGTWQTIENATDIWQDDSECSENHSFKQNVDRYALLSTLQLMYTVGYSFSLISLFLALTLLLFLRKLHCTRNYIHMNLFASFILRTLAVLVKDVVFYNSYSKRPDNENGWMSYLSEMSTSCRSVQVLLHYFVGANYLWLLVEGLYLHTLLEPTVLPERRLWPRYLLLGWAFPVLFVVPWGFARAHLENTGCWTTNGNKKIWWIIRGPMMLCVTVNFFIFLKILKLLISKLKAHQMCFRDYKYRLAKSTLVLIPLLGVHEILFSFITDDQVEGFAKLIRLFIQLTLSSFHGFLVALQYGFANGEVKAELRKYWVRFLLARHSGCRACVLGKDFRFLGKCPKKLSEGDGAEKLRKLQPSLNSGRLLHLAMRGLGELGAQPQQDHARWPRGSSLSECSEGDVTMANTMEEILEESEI
Chain of recombinant human type 2 Formyl peptide receptor (FPR2) (human) (P25090 whole entry): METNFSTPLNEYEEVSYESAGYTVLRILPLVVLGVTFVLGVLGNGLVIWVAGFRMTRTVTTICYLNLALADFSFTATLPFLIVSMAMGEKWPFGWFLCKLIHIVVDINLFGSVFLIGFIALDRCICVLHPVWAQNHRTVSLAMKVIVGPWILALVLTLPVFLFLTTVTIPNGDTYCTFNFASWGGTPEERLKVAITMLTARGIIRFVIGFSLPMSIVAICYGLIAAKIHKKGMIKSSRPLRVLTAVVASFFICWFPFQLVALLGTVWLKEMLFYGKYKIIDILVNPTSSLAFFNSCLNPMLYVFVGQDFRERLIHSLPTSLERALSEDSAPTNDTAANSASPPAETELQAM

| Binder | EC50 (nM), cAMP production (HTRF) [1] | Max efficacy in % of control peptide (cAMP production, HTRF) (% of control peptide) [1] | agonist activity, % of the max response of Trp-Lys-Tyr-Met-Val-Met (SEQ ID NO: 114) [2] | EC50 (nM), cAMP production (HTRF) [3] | Max efficacy in % of control peptide (cAMP production, HTRF) (% of control peptide) [3] |
| --- | --- | --- | --- | --- | --- |
| HADGSFSDEMNTILDNLAARDFINWLIQTKITDK (N-terminal acetyl; Lys-Lys-Ac attached to the epsilon-amino group of the C-terminal Lys34; C-terminal amide) [Analogue 3 (Example 4, BAP-modified GLP-2 analogue): …] | 3.4 nM | 101 | – | – | – |
| HADGSFSDEMNTILDNLAARDFINWLIQTKITDK (N-terminal acetyl; D-Ala at position 2; Lys-Lys-Ac attached to the epsilon-amino group of the C-terminal Lys34; C-terminal amide) [Analogue 5 (Example 4, BAP-modified GLP-2 analogue): …] | 8.9 nM | 95.1 | – | – | – |
| Ac-AMVSEFLKQ[dA]WFIENEEQEYVQTVKKK([Lys-Ac])-NH2 [Analogue 6 (Example 4, BAP-modified AnxA1 N-terminal fragment): …] | – | – | 33% | – | – |

Other lines, results leading:

| EC50 (nM), cAMP production (HTRF) [1] | Max efficacy in % of control peptide (cAMP production, HTRF) (% of control peptide) [1] | agonist activity, % of the max response of Trp-Lys-Tyr-Met-Val-Met (SEQ ID NO: 114) [2] | EC50 (nM), cAMP production (HTRF) [3] | Max efficacy in % of control peptide (cAMP production, HTRF) (% of control peptide) [3] | Binder |
| --- | --- | --- | --- | --- | --- |
| 5.9 nM | 102 | – | – | – | HGDGSFSDEMNTILDNLAARDFINWLIQTKITDK (N-terminal acetyl; Lys-Lys-Ac attached to the epsilon-amino group of the C-terminal Lys34; C-terminal amide) [Analogue 4 (Example 4, BAP-modified GLP-2 analogue): …] |
| – | – | – | 0.04 nM | 102 | Ac-HGEGTFTSDVSSYLEGQAAKEFIAWLVKGRGK([Lys-Lys-Ac])-NH2 [Analogue 2 (Example 4, BAP-modified GLP-1 analogue): …] |
